Source: patent US20230035798A1 (CAPELLA BIOSCIENCE, published 2023)
Substitutions are numbered along the chain they refer to. Names may count otherwise.

B1: 3B04_var8 (antibody, human IgG4, V domains shown)
VH: QVQLVQSGAEVKKPGASVKVSCKASGYTFTDYEMHWVRQAPGQGLEWMGEIDPETGDTAYAQKFQGRVTLTADKSTSTAYMELSSLRSEDTAVYYCSRETDYFFDYWGQGTLVTVSS
VL: DIQMTQSPSSLSASVGDRVTITCGASENIYGALNWYQRKQGKAPKLLIYGATNLADGVPSRFSGSGSGRDYTLTISSLQPEDFATYYCQNVLTTPWTFGQGTKLEIKR
notes: human IgG4 (S241P, L248E, Kabat); also called 3B04 VL2VH4 (var8)
B2: 3B04_var1 (antibody, human IgG4, V domains shown)
VH: B1 VH with M48I, A61S, Q65K, V68A, L83F
VL: B1 VL with K45Q, P59S
notes: human IgG4 (S241P, L248E, Kabat); also called 3B04 VL1VH1 (var1)
B3: 3B04_var2 (antibody, human IgG4, V domains shown)
VH: B1 VH with M48I, A61S, L83F
VL: B1 VL with K45Q, P59S
notes: human IgG4 (S241P, L248E, Kabat); also called 3B04 VL1VH2 (var2)
B4: 3B04_var3 (antibody, human IgG4, V domains shown)
VH: B1 VH with L83F
VL: B1 VL with K45Q, P59S
notes: human IgG4 (S241P, L248E, Kabat); also called 3B04 VL1VH3 (var3)
B5: 3B04_var4 (antibody, human IgG4, V domains shown)
VH: B1 VH
VL: B1 VL with K45Q, P59S
notes: human IgG4 (S241P, L248E, Kabat); also called 3B04 VL1VH4 (var4)
B6: 3B04_var5 (antibody, human IgG4, V domains shown)
VH: B1 VH with M48I, A61S, Q65K, V68A, L83F
VL: B1 VL
notes: human IgG4 (S241P, L248E, Kabat); also called 3B04 VL2VH1 (var5)
B7: 3B04_var6 (antibody, human IgG4, V domains shown)
VH: B1 VH with M48I, A61S, L83F
VL: B1 VL
notes: human IgG4 (S241P, L248E, Kabat); also called 3B04 VL2VH2 (var6)
B8: 3B04_var7 (antibody, human IgG4, V domains shown)
VH: B1 VH with L83F
VL: B1 VL
notes: human IgG4 (S241P, L248E, Kabat); also called 3B04 VL2VH3 (var7)
B9: 3B04_var9 (antibody, human IgG4, V domains shown)
VH: B1 VH with M48I, A61S, Q65K, V68A, L83F
VL: B1 VL with R38Q, Q40P
notes: human IgG4 (S241P, L248E, Kabat); also called 3B04 VL3VH1 (var9)
B10: 3B04_var10 (antibody, human IgG4, V domains shown)
VH: B1 VH with M48I, A61S, L83F
VL: B1 VL with R38Q, Q40P
notes: human IgG4 (S241P, L248E, Kabat); also called 3B04 VL3VH2 (var10)
B11: 3B04_var11 (antibody, human IgG4, V domains shown)
VH: B1 VH with L83F
VL: B1 VL with R38Q, Q40P
notes: human IgG4 (S241P, L248E, Kabat); also called 3B04 VL3VH3 (var11)
B12: 3B04_var12 (antibody, human IgG4, V domains shown)
VH: B1 VH
VL: B1 VL with R38Q, Q40P
notes: human IgG4 (S241P, L248E, Kabat); also called 3B04 VL3VH4 (var12)
B13: 3B04_var13 (antibody, human IgG4, V domains shown)
VH: B1 VH with M48I, A61S, Q65K, V68A, L83F
VL: B1 VL with G24R, R38Q, Q40P, D56E
notes: human IgG4 (S241P, L248E, Kabat); also called 3B04 VL4VH1 (var13)
B14: 3B04_var14 (antibody, human IgG4, V domains shown)
VH: B1 VH with M48I, A61S, L83F
VL: B1 VL with G24R, R38Q, Q40P, D56E
notes: human IgG4 (S241P, L248E, Kabat); also called 3B04 VL4VH2 (var14)
B15: 3B04_var15 (antibody, human IgG4, V domains shown)
VH: B1 VH with L83F
VL: B1 VL with G24R, R38Q, Q40P, D56E
notes: human IgG4 (S241P, L248E, Kabat); also called 3B04 VL4VH3 (var15)
B16: 3B04_var16 (antibody, human IgG4, V domains shown)
VH: B1 VH
VL: B1 VL with G24R, R38Q, Q40P, D56E
notes: human IgG4 (S241P, L248E, Kabat); also called 3B04 VL4VH4 (var16); 3B04 variant 16
B17: 3D12_var1 (antibody, human IgG4, V domains shown)
VH: B1 VH with G26D, Y32S, M34I, M48I, D57G, A61N, Q65K, V68A
VL: B1 VL with K45Q, P59S, F83V, T93S
notes: human IgG4 (S241P, L248E, Kabat); also called 3D12 VL1VH1 (var1)
B18: 3D12_var2 (antibody, human IgG4, V domains shown)
VH: B1 VH with G26D, Y32S, M34I, M48I, D57G, A61N
VL: B1 VL with K45Q, P59S, F83V, T93S
notes: human IgG4 (S241P, L248E, Kabat); also called 3D12 VL1VH2 (var2)
B19: 3D12_var3 (antibody, human IgG4, V domains shown)
VH: B1 VH with G26D, Y32S, M34I, D57G
VL: B1 VL with K45Q, P59S, F83V, T93S
notes: human IgG4 (S241P, L248E, Kabat); also called 3D12 VL1VH3 (var3)
B20: 3D12_var4 (antibody, human IgG4, V domains shown)
VH: B1 VH with Y32S, D57G
VL: B1 VL with K45Q, P59S, F83V, T93S
notes: human IgG4 (S241P, L248E, Kabat); also called 3D12 VL1VH4 (var4)
B21: 3D12_var5 (antibody, human IgG4, V domains shown)
VH: B1 VH with G26D, Y32S, M34I, M48I, D57G, A61N, Q65K, V68A
VL: B1 VL with F83V, T93S
notes: human IgG4 (S241P, L248E, Kabat); also called 3D12 VL2VH1 (var5)
B22: 3D12_var6 (antibody, human IgG4, V domains shown)
VH: B1 VH with G26D, Y32S, M34I, M48I, D57G, A61N
VL: B1 VL with F83V, T93S
notes: human IgG4 (S241P, L248E, Kabat); also called 3D12 VL2VH2 (var6)
B23: 3D12_var7 (antibody, human IgG4, V domains shown)
VH: B1 VH with G26D, Y32S, M34I, D57G
VL: B1 VL with F83V, T93S
notes: human IgG4 (S241P, L248E, Kabat); also called 3D12 VL2VH3 (var7)
B24: 3D12_var8 (antibody, human IgG4, V domains shown)
VH: B1 VH with Y32S, D57G
VL: B1 VL with F83V, T93S
notes: human IgG4 (S241P, L248E, Kabat); also called 3D12 VL2VH4 (var8)
B25: 3D12_var9 (antibody, human IgG4, V domains shown)
VH: B1 VH with G26D, Y32S, M34I, M48I, D57G, A61N, Q65K, V68A
VL: B1 VL with R38Q, Q40P, F83V, T93S
notes: human IgG4 (S241P, L248E, Kabat); also called 3D12 VL3VH1 (var9)
B26: 3D12_var10 (antibody, human IgG4, V domains shown)
VH: B1 VH with G26D, Y32S, M34I, M48I, D57G, A61N
VL: B1 VL with R38Q, Q40P, F83V, T93S
notes: human IgG4 (S241P, L248E, Kabat); also called 3D12 VL3VH2 (var10)
B27: 3D12_var11 (antibody, human IgG4, V domains shown)
VH: B1 VH with G26D, Y32S, M34I, D57G
VL: B1 VL with R38Q, Q40P, F83V, T93S
notes: human IgG4 (S241P, L248E, Kabat); also called 3D12 VL3VH3 (var11)
B28: 3D12_var12 (antibody, human IgG4, V domains shown)
VH: B1 VH with Y32S, D57G
VL: B1 VL with R38Q, Q40P, F83V, T93S
notes: human IgG4 (S241P, L248E, Kabat); also called 3D12 VL3VH4 (var12)
B29: 3D12_var14 (antibody, human IgG4, V domains shown)
VH: B1 VH with G26D, Y32S, M34I, M48I, D57G, A61N
VL: B1 VL with G24R, R38Q, Q40P, D56E, F83V, T93S
notes: human IgG4 (S241P, L248E, Kabat); also called 3D12 VL4VH2 (var14)
B30: 3D12_var15 (antibody, human IgG4, V domains shown)
VH: B1 VH with G26D, Y32S, M34I, D57G
VL: B1 VL with G24R, R38Q, Q40P, D56E, F83V, T93S
notes: human IgG4 (S241P, L248E, Kabat); also called 3D12 VL4VH3 (var15)
B31: 3D12_var16 (antibody, human IgG4, V domains shown)
VH: B1 VH with Y32S, D57G
VL: B1 VL with G24R, R38Q, Q40P, D56E, F83V, T93S
notes: human IgG4 (S241P, L248E, Kabat); also called 3D12 VL4VH4 (var16)
B32: 3D12_var13 (antibody, human IgG4, V domains shown)
VH: B1 VH with G26D, Y32S, M34I, M48I, D57G, A61N, Q65K, V68A
VL: B1 VL with G24R, R38Q, Q40P, D56E, F83V, T93S
notes: human IgG4 (S241P, L248E, Kabat); also called 3D12 VL4VH1 (var13)
B33: LTβR-Fc (Fc fusion, UniProt P36941 28-227, looked up)
chain: SQPQAVPPYASENQTCRDQEKEYYEPQHRICCSRCPPGTYVSAKCSRIRDTVCATCAENSYNEHWNYLTICQLCRPCDPVMGLEEIAPCTSKRKTQCRCQPGMFCAAWALECTHCELLSDCPPGTEAELKDEVGKGNNHCVPCKAGHFQNTSSPSARCQPHTRCENQGLVEAAPGTAQSDTTCKNPLEPLPPEMSGTMLM
modifications: biotinylated (EZ-Link NHS-LC-Biotin) in the competition assays
notes: also called LTBR-Fc; biotin-LTβR-Fc; not shown: Fc part of the bought fusion protein
B34: HVEM-Fc (Fc fusion, UniProt Q92956 37-202, looked up)
chain: PALPSCKEDEYPVGSECCPKCSPGYRVKEACGELTGTVCEPCPPGTYIAHLNGLSKCLQCQMCDPAMGLRASRNCSRTENAVCGCSPGHFCIVQDGDHCAACRAYATSSPGQRVQKGGTESQDTLCQNCPPGTFSPNGTLEECQHQTKCSWLVTKAGAGTSSSHWV
modifications: biotinylated (EZ-Link NHS-LC-Biotin) in the competition assays
notes: also called biotin-HVEM-Fc; biotinylated HVEM-Fc; not shown: Fc part of the bought fusion protein

The binders below were run against membrane LIGHT without residues 81-84 (EL4-NC-LIGHT cells) (human, UniProt O43557 1-240) (assay: cell-based or functional assay).
Sequence of membrane LIGHT without residues 81-84 (EL4-NC-LIGHT cells) (O43557 other isoform, or with tags, fused parts or gaps): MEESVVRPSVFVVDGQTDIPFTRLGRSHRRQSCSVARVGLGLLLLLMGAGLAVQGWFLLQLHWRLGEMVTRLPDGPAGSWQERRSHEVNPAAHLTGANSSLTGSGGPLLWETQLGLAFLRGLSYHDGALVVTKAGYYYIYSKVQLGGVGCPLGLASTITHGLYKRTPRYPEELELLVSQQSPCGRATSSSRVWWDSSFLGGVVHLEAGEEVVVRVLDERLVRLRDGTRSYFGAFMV

Row | Binder | IC50, inhibition of IL-8 secretion from HT-29 cells (EL4-NC-LIGHT cells) [nM]
1 | B1 | 0.05
2 | B2 | 0.05
3 | B3 | 0.06
4 | B4 | 0.04
5 | B5 | 0.04
6 | B6 | 0.04
7 | B7 | 0.08
8 | B8 | 0.05
9 | B9 | 0.09
10 | B10 | 0.04
11 | B11 | 0.06
12 | B12 | 0.07
13 | B13 | 0.04
14 | B14 | 0.05
15 | B15 | 0.1
16 | B16 | 0.1

Row | Binder | IC50, inhibition of IL-8 secretion from HT-29 cells (EL4-NC-LIGHT cells) [nM]
17 | B17 | 0.33
18 | B18 | 0.74
19 | B19 | 0.53
20 | B20 | 0.66
21 | B21 | 0.59
22 | B22 | 0.47
23 | B23 | 0.54
24 | B24 | 0.67
25 | B25 | 0.71
26 | B26 | 0.44
27 | B27 | 0.55
28 | B28 | 0.58
29 | B29 | 0.45
30 | B30 | 0.38
31 | B31 | 0.52
32 | B32 | 0.45

These binders were tested against T1, human LIGHT (TNFSF14), full length, membrane-bound (214E allele) (human, UniProt O43557 1-240) (assay: flow cytometry, EL4-LIGHT cells).
T1 construct: also called membrane LIGHT; human membrane LIGHT
T1 sequence (O43557 whole entry K214E): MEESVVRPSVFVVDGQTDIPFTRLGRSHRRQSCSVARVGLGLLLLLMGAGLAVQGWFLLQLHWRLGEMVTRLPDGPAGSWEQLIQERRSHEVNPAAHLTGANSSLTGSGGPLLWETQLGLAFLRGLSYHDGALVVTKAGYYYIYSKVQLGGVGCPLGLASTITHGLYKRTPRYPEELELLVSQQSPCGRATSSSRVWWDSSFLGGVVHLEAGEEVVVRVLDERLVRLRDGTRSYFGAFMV

Row | Binder | EC50 [nM]
33 | B1 | 0.28
34 | B2 | 0.24
35 | B3 | 0.38
36 | B4 | 0.32
37 | B5 | 0.26
38 | B6 | 0.27
39 | B7 | 0.27
40 | B8 | 0.23
41 | B9 | 0.26
42 | B10 | 0.49
43 | B11 | 0.37
44 | B12 | 0.24
45 | B13 | 0.32
46 | B14 | 0.3
47 | B15 | 0.39
48 | B16 | 0.24

Row | Binder | EC50 [nM]
49 | B17 | 0.22
50 | B18 | 0.47
51 | B19 | 0.33
52 | B20 | 0.32
53 | B21 | 0.33
54 | B22 | 0.31
55 | B23 | 0.38
56 | B24 | 0.31
57 | B25 | 0.36
58 | B26 | 0.39
59 | B27 | 0.34
60 | B28 | 0.33
61 | B29 | 0.23
62 | B30 | 0.22
63 | B31 | 0.26
64 | B32 | 0.24

Each binder was assayed against T1, human LIGHT (TNFSF14), full length, … (assay: flow cytometry, HEK293FF human LIGHT cells (value given in the method)).

Row | Binder | EC50 [nM]
65 | B33 | 15
66 | B34 | 45
